PMC12260524, “Identification of a VPS29 isoform with restricted association to Retriever and Retromer accessory proteins through autoinhibition” (Proceedings of the National Academy of Sciences of the …, 2025)

Target: GST-VPS29C (human, UniProt F8VXU5 1-214)
Assay: ITC; 300 μM peptide titrated into 10 μM GST-tagged VPS29C, 25 °C, 50 mM Tris-HCl pH 7.5, 200 mM NaCl, 2 mM β-mercaptoethanol; single-site model
Details: both partners purified

B1: VPS35L 16 to 38 (peptide)
peptide: EFASCRLEAVPLEFGDYHPLKPI
notes: also called VPS35L Pro-Leu motif containing peptide
In the case of B1, the Kd is reported as over 100 µM.
